Test results published in the Immune Epitope Database (IEDB).

How the values were obtained:
HLA-A*02:01 = assay: IEDB peptide-MHC binding, purified MHC/direct/fluorescence; filed as Kd, often an IC50 or EC50 that approximates it; ≥ and ≤ were set here for values at or beyond the usual limits of such assays
HLA-A*02:03 = assay: as above
HLA-A*02:11 = assay: as above
HLA-A*02:12 = assay: as above
HLA-A*02:16 = assay: as above
HLA-A*02:19 = assay: as above
HLA-A*03:01 = assay: as above
HLA-A*24:03 = assay: as above
HLA-A*26:01 = assay: as above
HLA-A*29:02 = assay: as above; details: source organism: Rickettsia sibirica 246
HLA-A*68:02 = assay: as above
HLA-A*69:01 = assay: as above
HLA-B*07:02 = assay: as above
HLA-B*15:01 [1] = assay: as above
HLA-B*15:17 = assay: as above; details: source organism: Rickettsia sibirica 246
HLA-B*18:01 = assay: as above
HLA-B*27:03 = assay: as above
HLA-B*35:01 = assay: as above
HLA-B*39:01 = assay: as above
HLA-B*46:01 [2] = assay: as above
HLA-B*51:01 = assay: as above
HLA-B*57:01 = assay: as above
HLA-C*12:03 = assay: as above
HLA-C*14:02 = assay: as above
HLA-C*15:02 = assay: as above; details: source organism: Vibrio vulnificus YJ016
HLA-B*15:42 = assay: IEDB peptide-MHC binding, purified MHC/competitive/fluorescence; filed as Kd, often an IC50 or EC50 that approximates it; ≥ and ≤ were set here for values at or beyond the usual limits of such assays; details: source organism: Vibrio vulnificus YJ016
HLA-B*45:06 = assay: as above; details: source organism: Vibrio vulnificus YJ016
HLA-B*83:01 = assay: as above; details: source organism: Vibrio vulnificus YJ016
HLA-C*06:02 = assay: as above; details: source organism: Vibrio vulnificus YJ016
HLA-A*01:01 [3] = assay: IEDB peptide-MHC binding, purified MHC/competitive/fluorescence; ≥ and ≤ were set here for values at or beyond the usual limits of such assays; details: source organism: Sudan ebolavirus
HLA-B*15:01 [4] = assay: as above; details: source organism: Sudan ebolavirus
HLA-A*01:01 [5] = assay: IEDB peptide-MHC binding, purified MHC/direct/fluorescence; filed as Kd, often an IC50 or EC50 that approximates it; ≥ and ≤ were set here for values at or beyond the usual limits of such assays
HLA-A*80:01 = assay: as above; details: source organism: Francisella tularensis subsp. holarctica LVS
HLA-C*08:02 = assay: as above
HLA-A*11:01 = assay: as above; details: source organism: Pseudomonas aeruginosa
HLA-A*31:01 = assay: as above; details: source organism: Pseudomonas aeruginosa
HLA-B*08:01 = assay: as above; details: source organism: Pseudomonas aeruginosa
HLA-B*27:05 = assay: as above; details: source organism: Pseudomonas aeruginosa
HLA-B*40:01 = assay: as above; details: source organism: Pseudomonas aeruginosa
HLA-B*58:01 = assay: as above; details: source organism: Pseudomonas aeruginosa
HLA-B*15:02 = assay: IEDB peptide-MHC binding, purified MHC/competitive/fluorescence; filed as Kd, often an IC50 or EC50 that approximates it; ≥ and ≤ were set here for values at or beyond the usual limits of such assays
HLA-B*48:01 = assay: IEDB peptide-MHC binding, purified MHC/direct/fluorescence; filed as Kd, often an IC50 or EC50 that approximates it; ≥ and ≤ were set here for values at or beyond the usual limits of such assays; details: source organism: Burkholderia mallei
HLA-B*46:01 [6] = assay: IEDB peptide-MHC binding, purified MHC/competitive/fluorescence; filed as Kd, often an IC50 or EC50 that approximates it; ≥ and ≤ were set here for values at or beyond the usual limits of such assays; details: source organism: Shigella sonnei Ss046
[7] = source organism: Rickettsia sibirica 246
[8] = source organism: Vibrio vulnificus
[9] = source organism: Vibrio vulnificus YJ016
[10] = source organism: Pseudomonas aeruginosa
[11] = source organism: Yersinia pestis CO92
[12] = source organism: Squirrelpox virus
[13] = source organism: Escherichia coli O157:H7 str. EC4486
[14] = source organism: Giardia lamblia ATCC 50803

EFVSANLAM
Kd (HLA-A*02:01; [7]): ≥ 20 µM
Kd (HLA-A*02:03; [7]): ≥ 20 µM
Kd (HLA-A*02:11; [7]): ≥ 20 µM
Kd (HLA-A*02:12; [7]): ≥ 20 µM
Kd (HLA-A*02:16; [7]): ≥ 20 µM
Kd (HLA-A*02:19; [7]): ≥ 20 µM
Kd (HLA-A*03:01; [7]): ≥ 20 µM
Kd (HLA-A*24:03; [7]): ≥ 20 µM
Kd (HLA-A*26:01; [7]): ≥ 20 µM
Kd (HLA-A*29:02): ≥ 20 µM
Kd (HLA-A*68:02; [7]): ≥ 20 µM
Kd (HLA-A*69:01; [7]): ≥ 20 µM
Kd (HLA-B*07:02; [7]): ≥ 20 µM
Kd (HLA-B*15:01 [1]; [7]): ≥ 20 µM
Kd (HLA-B*15:17): ≥ 20 µM
Kd (HLA-B*18:01; [7]): ≥ 20 µM
Kd (HLA-B*27:03; [7]): ≥ 20 µM
Kd (HLA-B*35:01; [7]): 0.052 µM
Kd (HLA-B*39:01; [7]): ≥ 20 µM
Kd (HLA-B*46:01 [2]; [7]): ≥ 20 µM
Kd (HLA-B*51:01; [7]): ≥ 20 µM
Kd (HLA-B*57:01; [7]): ≥ 20 µM

YLRKHIRAL
Kd (HLA-B*07:02; [8]): 0.003 µM
Kd (HLA-B*15:01 [1]; source organism: Vibrio vulnificus CMCP6): 0.024 µM
Kd (HLA-B*51:01; [8]): ≥ 20 µM
Kd (HLA-C*12:03; [9]): 0.193 µM
Kd (HLA-C*14:02; [9]): 0.099 µM
Kd (HLA-C*15:02): ≥ 20 µM
Kd (HLA-B*15:42): ≥ 5 µM
Kd (HLA-B*45:06): ≥ 5 µM
Kd (HLA-B*83:01): ≥ 5 µM
Kd (HLA-C*06:02): 0.482 µM

TSSYYATSY
IC50 (HLA-A*01:01 [3]): 2.01 µM
IC50 (HLA-B*15:01 [4]): 14.3 µM

LSDNLSLVY
Kd (HLA-A*01:01 [5]; source organism: Francisella tularensis subsp. holarctica LVS): ≤ 0.001 µM
Kd (HLA-A*80:01): 0.168 µM
Kd (HLA-C*08:02; source organism: Francisella tularensis subsp. tularensis FSC198): 0.552 µM

ALEPGFKDY
Kd (HLA-A*01:01 [5]; [10]): 2 µM
Kd (HLA-A*02:01; [10]): ≥ 20 µM
Kd (HLA-A*03:01; [10]): ≥ 20 µM
Kd (HLA-A*11:01): ≥ 20 µM
Kd (HLA-A*26:01; [10]): ≥ 20 µM
Kd (HLA-A*31:01): ≥ 20 µM
Kd (HLA-A*69:01; [10]): ≥ 20 µM
Kd (HLA-B*07:02; [10]): ≥ 20 µM
Kd (HLA-B*08:01): ≥ 20 µM
Kd (HLA-B*15:01 [1]; [10]): 0.482 µM
Kd (HLA-B*27:05): ≥ 20 µM
Kd (HLA-B*40:01): ≥ 20 µM
Kd (HLA-B*58:01): ≥ 20 µM
Kd (HLA-B*15:02; source organism: Pseudomonas aeruginosa PACS2): 0.814 µM

KIMQVDRPM
Kd (HLA-C*14:02; [11]): 0.102 µM
Kd (HLA-B*15:02; [11]): 4 µM

MACHRVLTY
Kd (HLA-A*02:01; [12]): ≥ 20 µM
Kd (HLA-A*02:03; [12]): ≥ 20 µM
Kd (HLA-A*02:11; [12]): ≥ 20 µM
Kd (HLA-A*02:12; [12]): ≥ 20 µM
Kd (HLA-A*02:16; [12]): ≥ 20 µM
Kd (HLA-A*02:19; [12]): ≥ 20 µM
Kd (HLA-A*24:03; [12]): ≥ 20 µM
Kd (HLA-A*26:01; [12]): ≥ 20 µM
Kd (HLA-A*68:02; [12]): ≥ 20 µM
Kd (HLA-A*69:01; [12]): ≥ 20 µM
Kd (HLA-B*07:02; [12]): ≥ 20 µM
Kd (HLA-B*15:01 [1]; [12]): 0.104 µM
Kd (HLA-B*18:01; [12]): ≥ 20 µM
Kd (HLA-B*27:03; [12]): ≥ 20 µM
Kd (HLA-B*35:01; [12]): 0.021 µM
Kd (HLA-B*39:01; [12]): ≥ 20 µM
Kd (HLA-B*46:01 [2]; [12]): ≥ 20 µM
Kd (HLA-B*51:01; [12]): ≥ 20 µM
Kd (HLA-C*12:03; [12]): 0.018 µM

FQPQSGNAM
Kd (HLA-B*48:01): 2.53 µM
Kd (HLA-C*08:02; source organism: Burkholderia mallei NCTC 10229): 0.576 µM

YAMMSLFDM
Kd (HLA-A*02:03; [13]): ≥ 20 µM
Kd (HLA-A*03:01; [13]): ≥ 20 µM
Kd (HLA-A*26:01; [13]): ≥ 20 µM
Kd (HLA-B*07:02; [13]): 18.4 µM
Kd (HLA-B*18:01; [13]): ≥ 20 µM
Kd (HLA-B*27:03; [13]): ≥ 20 µM
Kd (HLA-B*35:01; [13]): 0.004 µM
Kd (HLA-B*51:01; [13]): ≥ 20 µM
Kd (HLA-B*57:01; [13]): ≥ 20 µM
Kd (HLA-B*46:01 [6]): 0.113 µM

ELNASFIVF
Kd (HLA-B*15:02; source organism: Rickettsia massiliae MTU5): 0.182 µM

SALGFTGVY
Kd (HLA-B*15:02; source organism: Brucella canis ATCC 23365): 0.385 µM

LTIVFVPEV
Kd (HLA-A*02:01; [14]): 0.004 µM
Kd (HLA-A*03:01; [14]): ≥ 20 µM
Kd (HLA-A*26:01; [14]): ≥ 20 µM
Kd (HLA-B*15:01 [1]; [14]): ≥ 20 µM
Kd (HLA-B*18:01; [14]): ≥ 20 µM
Kd (HLA-B*27:03; [14]): ≥ 20 µM
Kd (HLA-B*39:01; [14]): ≥ 20 µM
Kd (HLA-B*46:01 [2]; [14]): ≥ 20 µM
